The DeepSol protein solubility set

test: soluble on expression in E. coli; label from the status in PepcDB or PDB records

Row | Sequence | soluble on expression in E. coli
1 | MTGVDPTIVKIHEIQGTGTASPLVNNVVTIEAIVVGDFQDGDGDISRNLRGFYVQEEDADVDGNVATSEGIFIFENGNFITDVNVGDKVQITGTVDEFFGETQIDTITNITVISSGNTLPTAANITLPTAGTTESQGGTPQPDLEAFEGMLVKFTDTLTITEMFNLDRFNEIKLSQGGRPQQFTQFNDANVAGYGAYREEIGARTITYDDGLSVQNAEISNLDGFGSSFSTASDIRMGDTINNLTGVLSYQWAGNASSGATWRVRSAVDGTNQFTKVNDRPVTPENVGGSLKVTGFNVLLEHHHHHH | soluble
2 | DDGDCKNIYRYSPKDGKFEKLNLETDVTSAFALSEYNPGIAAYIGQSDYNAGVAYLYDMKKKTSSLLADPMKPILEKIELGKTEPWNFTASDGTVITGKMCLPPNFDPNKKYPMIVYYYGGTTPTTRGISNPYCAQLFASRDYVVYVIQPSGTIGFGQEFSARHVNAWGKRTADDIIEGTKQFCKEHPFVDEKKIGCLGASYGGFMTQYLQTQTDIFAAAVSHAGISDVTSYWGEGYWGYSYNAIAAADSYPWKDPDLFTKQGSLFNADKINTPLLLLHGTVDTNVPIGESIQLFNALKILGKTVEFVTVDGENHFISDYDKRIKWHNSIMAWFARWLQ | not soluble
3 | MSGIKSLELLLQSMSPELMAGDYVFCTVNGALSDYLSLEPIATFREPEGLTLVLEAEKAQQAGLESSALFSLITLTVHSSLEAVGLTAAFATKLAEHGISANVIAGYYHDHIFVQKEKAQQALQALGEFAQA | soluble
4 | MGSDKIHHHHHHMNLRGKMIVIKFGGSSLRSEFKSAVSLIKALSEEKDVVVVVSALKGITDLLEKYTDTFDSRYAVEVSKTYLEFGKRMGIDTSSLSPYLKQLFNPPDLPPQALRDYILSIGELLSAAMIAEKANGAVIFPWDLFVAHGSFGNGFIDIKKSKRNVKLVKEALESGKIPIIPGFIANLNGYRVTLGRGGSDYSAVALGVLLNSELVAIMSDVEGIFTADPKMIPYSLLIPYMSYDEILIASKYGMEAIQWKAAKLAKEYEALILFGRASDWRMGTVVSNSSSHMPLLSYDQGKLLVMNMDSEIPYEVVEEGEFWRVYRVPKRDSIKIIKELHRKIIYQENAQLLGRVKA | not soluble
5 | MKIVIAPDSFKESLSAEKCCQAIKAGFSTLFPDANYICLPIADGGEGTVDAMVAATGGNIVTLEVCGPMGEKVNAFYGLTGDGKTAVIEMAAASGLMLVAPEKRNPLLASSFGTGELIRHALDNDIRHIILGIGGSATVDGGMGMAQALGVRFLDADGQALAANGGNLARVASIEMDECDPRLANCHIEVACDVDNPLVGARGAAAVFGPQKGATPEMVEELEQGLQNYARVLQQQTEINVCQMAGGGAAGGMGIAAAVFLNADIKPGIEIVLNAVNLAQAVQGAALVITGEGRIDSQTAGGKAPLGVASVAKQFNVPVIGIAGVLGDGVEVVHQYGIDAVFSILPRLAPLAEVLASGETNLFNSARNIACAIKIGQGIKN | soluble
6 | MGSDKIHHHHHHMLFRASRSDMSNLTNCITNESVAVTADKKPVIGRIHSFESCGTVDGPGIRFITFFQGCLMRCLYCHNRDTWDTHGGKEITVEDLMKEVVTYRHFMNASGGGVTASGGEAILQAEFVRDWFRACKKEGIHTCLDTNGFVRRYDPVIDELLDVTDLVMLDLKQMNDEIHQNLVGVSNHRTLEFAQYLSKKNVKVWIRYVVVPGWSDDDDSAHRLGEFTRDMGNVEKIELLPYHELGKHKWVAMGEEYKLDGVKPPKKETMERVKGILEQYGHKVMY | not soluble
7 | GPGSMAIPPLRASDLSSPSPSIAPQRERTRSVGTRLRTSITRDDAERVLPASSSQVETLARDATTTCEQQLMQEEELCGPSYREVEGRRPSRALSPSGAGDTSGVEDGGRARGREYVEDSDDEDVYNSHVARRIRAFLDSIKAEDFTRNPSPVDVTGMAANGEGIDEEALRQQWLERATVDEARSIAAEAQRELLIVLHDAITLETDLAEMSEDAAVLERAVNHREETVEMLKMQLSIADEYNEELHGAKKEALRKLSDAKTEIALLSQRNATLSKQLHEKEKALQLSLARSASASARTSPPAAERRDEGTITTAELQSALIAATASTGLPNNGSLSTPSSPAQHGECELKGMLRKLQLVCDTLQSTVTAKADLDQQLRQWTMGVGESRADAAACGSASSDAGISQPHGERCAPTDAEQRLLRRRCEDVARCIDSLENDIRMLRAKVRAQQACTDAVEGGSAGRRRSAAEAEAATRPQPVETPGPASASATLPEGPGGSGGCAEPADSNLAFLQRQLDRAQADARRLESELRAEREKSQRQSAAEKKLLENVAYLTRKLRAREALDREARLQRRGEKGGTHGDGGDTADGRRTLLYPHRFSHGDSAGVRRGASTAAGDVCGEGAPTSALRRVNREADAVGMGAATAAARKGRANSQELRQRRESVFAALRDAQRASDERRSSHVVSDTRRSSDVQTSFSPILPTSSSRDAALKASGNAVKSGTRATTPTLTPSRG | not soluble
